Measured values taken from paper PMC4642857.
pKd: −log10 of the molar value.

Target: microtubule polymerized from porcine brain tubulin, stabilized with paclitaxel (porcine)
Assay: co-sedimentation

Question: With “purified γ stalk–LC1 complex (from UniProt Q9XHH2 1-198)” as the substance, how does the Bmax/Kd read?
Answer: Its Bmax/Kd is 0.053.

Question: And the pKd?
Answer: The pKd was 4.72.
